Measurements reported in paper PMC9482650, “Quantitative fragmentomics allow affinity mapping of interactomes” (Nature Communications, 2022).

T1: SIPA1L3, O60292
T1 sequence (O60292 961-1052, limits assumed, looked up): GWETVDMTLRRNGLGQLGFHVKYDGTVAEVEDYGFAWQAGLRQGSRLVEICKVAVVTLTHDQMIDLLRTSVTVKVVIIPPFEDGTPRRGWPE

T2: MPP5, Q8N3R9
T2 sequence (Q8N3R9 251-346, limits assumed, looked up): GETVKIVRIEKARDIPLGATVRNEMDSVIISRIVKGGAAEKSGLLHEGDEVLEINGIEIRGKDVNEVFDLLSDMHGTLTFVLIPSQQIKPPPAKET

T3: MAGI2_1, Q86UL8
T3 sequence (Q86UL8 12-111, limits assumed, looked up): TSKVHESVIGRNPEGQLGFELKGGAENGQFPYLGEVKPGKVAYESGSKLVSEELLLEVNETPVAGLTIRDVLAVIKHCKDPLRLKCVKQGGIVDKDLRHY

T4: NHERF3_2, Q5T2W1
T4 sequence (Q5T2W1 129-225, limits assumed, looked up): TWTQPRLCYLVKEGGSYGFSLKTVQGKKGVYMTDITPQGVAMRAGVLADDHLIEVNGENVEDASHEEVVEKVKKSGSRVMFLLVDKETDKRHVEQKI

T5: TJP3_1, O95049
T5 sequence (O95049 6-103, limits assumed, looked up): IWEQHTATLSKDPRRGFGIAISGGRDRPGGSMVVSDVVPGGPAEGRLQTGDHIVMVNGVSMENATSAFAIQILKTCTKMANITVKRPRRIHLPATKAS

T6: MPP1, Q00013
T6 sequence (Q00013 66-162, limits assumed, looked up): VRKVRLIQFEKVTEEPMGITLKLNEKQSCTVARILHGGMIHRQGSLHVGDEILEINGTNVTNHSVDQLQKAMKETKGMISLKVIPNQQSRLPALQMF

T7: GRIP1_1, Q9Y3R0
T7 sequence (Q9Y3R0 48-146, limits assumed, looked up): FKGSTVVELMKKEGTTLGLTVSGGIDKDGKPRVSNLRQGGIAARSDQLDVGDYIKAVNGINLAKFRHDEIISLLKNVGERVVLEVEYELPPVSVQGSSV

T8: DVL1, O14640
T8 sequence (O14640 246-333, limits assumed, looked up): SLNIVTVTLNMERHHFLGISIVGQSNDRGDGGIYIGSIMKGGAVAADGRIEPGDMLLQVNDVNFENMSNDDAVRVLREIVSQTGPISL

T9: MLLT4, P55196
T9 sequence (P55196 1002-1103, limits assumed, looked up): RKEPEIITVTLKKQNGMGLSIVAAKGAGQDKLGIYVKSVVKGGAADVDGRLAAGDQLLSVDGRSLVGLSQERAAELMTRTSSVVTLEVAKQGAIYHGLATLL

T10: PREX2_2, Q70Z35
T10 sequence (Q70Z35 672-764, limits assumed, looked up): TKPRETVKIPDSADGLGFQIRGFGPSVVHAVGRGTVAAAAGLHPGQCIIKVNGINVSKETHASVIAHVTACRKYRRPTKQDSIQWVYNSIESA

T11: MPDZ_11, O75970
T11 sequence (O75970 1720-1817, limits assumed, looked up): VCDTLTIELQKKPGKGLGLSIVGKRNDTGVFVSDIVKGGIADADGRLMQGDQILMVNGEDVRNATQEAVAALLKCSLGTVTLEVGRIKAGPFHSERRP

T12: PTPN13_5, Q12923
T12 sequence (Q12923 1877-1975, limits assumed, looked up): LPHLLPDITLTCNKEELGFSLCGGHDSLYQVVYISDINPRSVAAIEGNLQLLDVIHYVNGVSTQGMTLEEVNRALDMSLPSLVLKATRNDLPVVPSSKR

T13: SHANK3, Q9BYB0
T13 sequence (Q9BYB0 641-750, limits assumed, looked up): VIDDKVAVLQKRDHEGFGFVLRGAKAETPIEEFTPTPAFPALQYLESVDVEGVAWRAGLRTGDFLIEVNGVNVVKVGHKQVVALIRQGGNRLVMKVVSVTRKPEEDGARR

T14: SHROOM4, Q9ULL8
T14 sequence (Q9ULL8 5-102, limits assumed, looked up): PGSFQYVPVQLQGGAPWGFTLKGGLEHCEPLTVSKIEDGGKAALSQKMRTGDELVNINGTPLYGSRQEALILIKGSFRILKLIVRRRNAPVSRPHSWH


Assays:
Assay in all cases: holdup assay
Parameters in all cases: key: below the threshold = too weak to quantify, mostly under pKd 3.1 to 4
SIPA1L3, O60292 = target: T1, SIPA1L3, O60292
CNKSR3, Q6P9H4 = target: CNKSR3, Q6P9H4
PDZRN4_2, Q6ZMN7 = target: PDZRN4_2, Q6ZMN7
MPP5, Q8N3R9 = target: T2, MPP5, Q8N3R9
MAGI2_1, Q86UL8 = target: T3, MAGI2_1, Q86UL8
NHERF3_2, Q5T2W1 = target: T4, NHERF3_2, Q5T2W1
RGS3, P49796-9 = target: RGS3, P49796-9
TJP3_1, O95049 = target: T5, TJP3_1, O95049
RIMS2, Q9UQ26 = conditions: plain residues with an end cap or a label only (N-terminal biotin on a linker: (peg)3)
MPP1, Q00013 = target: T6, MPP1, Q00013
GRIP1_1, Q9Y3R0 = target: T7, GRIP1_1, Q9Y3R0
DVL1, O14640 = target: T8, DVL1, O14640; conditions: plain residues with an end cap or a label only (N-terminal biotin on a linker: (peg)3)
MLLT4, P55196 = target: T9, MLLT4, P55196
NHERF2_1, Q15599 = target: NHERF2_1, Q15599
PREX2_2, Q70Z35 = target: T10, PREX2_2, Q70Z35
MPDZ_11, O75970 = target: T11, MPDZ_11, O75970
MAGI1_5, Q96QZ7 = target: MAGI1_5, Q96QZ7
PTPN13_5, Q12923 = target: T12, PTPN13_5, Q12923
SHANK3, Q9BYB0 = target: T13, SHANK3, Q9BYB0
SDCBP_1, O00560 = target: SDCBP_1, O00560
DVL2, O14641 = conditions: plain residues with an end cap or a label only (N-terminal biotin on a linker: (peg)3)
AHNAK2, Q8IVF2 = target: AHNAK2, Q8IVF2
SHROOM4, Q9ULL8 = target: T14, SHROOM4, Q9ULL8
[1] = plain residues with an end cap or a label only (N-terminal biotin on a linker: (peg)3)
[2] = modified: phospho on T at position -2 from the C-terminal residue

RIMS2, Q9UQ26, sequence (Q9UQ26 637-758): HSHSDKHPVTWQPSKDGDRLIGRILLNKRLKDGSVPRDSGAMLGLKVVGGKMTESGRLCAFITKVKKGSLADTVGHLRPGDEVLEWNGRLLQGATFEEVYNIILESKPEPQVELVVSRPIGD
RGS3, P49796-9, sequence (P49796 other isoform, or with tags, fused parts or gaps): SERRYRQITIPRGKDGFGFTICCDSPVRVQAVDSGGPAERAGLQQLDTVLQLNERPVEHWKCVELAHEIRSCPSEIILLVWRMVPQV
NHERF2_1, Q15599, sequence (Q15599 9-91): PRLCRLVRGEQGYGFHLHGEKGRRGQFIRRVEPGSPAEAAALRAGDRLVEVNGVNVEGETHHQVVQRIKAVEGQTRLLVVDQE
DVL2, O14641, sequence (O14641 260-359): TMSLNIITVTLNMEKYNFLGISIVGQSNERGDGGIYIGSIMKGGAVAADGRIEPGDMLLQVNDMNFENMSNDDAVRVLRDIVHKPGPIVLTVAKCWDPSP
MAGI1_5, Q96QZ7, sequence (Q96QZ7 986-1098): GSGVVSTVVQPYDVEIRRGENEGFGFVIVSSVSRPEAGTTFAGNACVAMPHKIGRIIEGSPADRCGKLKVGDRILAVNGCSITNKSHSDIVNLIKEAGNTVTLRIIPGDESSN
AHNAK2, Q8IVF2, sequence (Q8IVF2 108-193): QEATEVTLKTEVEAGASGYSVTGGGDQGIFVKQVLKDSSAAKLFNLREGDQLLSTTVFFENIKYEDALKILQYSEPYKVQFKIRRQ
PDZRN4_2, Q6ZMN7, sequence (Q6ZMN7 389-498): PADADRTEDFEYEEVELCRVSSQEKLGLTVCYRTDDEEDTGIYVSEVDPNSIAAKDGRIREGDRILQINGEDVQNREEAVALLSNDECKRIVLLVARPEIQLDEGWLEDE
SDCBP_1, O00560, sequence (O00560 111-198): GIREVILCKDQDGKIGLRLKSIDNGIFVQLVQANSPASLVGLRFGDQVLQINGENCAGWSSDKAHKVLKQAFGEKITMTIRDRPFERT
CNKSR3, Q6P9H4, sequence (Q6P9H4 203-303): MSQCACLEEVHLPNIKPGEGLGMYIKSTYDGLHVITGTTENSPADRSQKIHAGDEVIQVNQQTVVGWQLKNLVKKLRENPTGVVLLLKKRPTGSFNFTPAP

Row | Binder | pKd (SIPA1L3, O60292; [1]) | pKd (PDZRN4_2, Q6ZMN7; [1]) | pKd (MPP5, Q8N3R9; [1]) | pKd (MAGI2_1, Q86UL8; [1]) | pKd (NHERF3_2, Q5T2W1; [1]) | pKd (RGS3, P49796-9; [1]) | pKd (TJP3_1, O95049; [1]) | pKd (RIMS2, Q9UQ26) | pKd (MPP1, Q00013; [1]) | pKd (GRIP1_1, Q9Y3R0; [1]) | pKd (DVL1, O14640) | pKd (MLLT4, P55196; [1]) | pKd (NHERF2_1, Q15599; [1]) | pKd (PREX2_2, Q70Z35; [1]) | pKd (MPDZ_11, O75970; [1]) | pKd (MAGI1_5, Q96QZ7; [1]) | pKd (PTPN13_5, Q12923; [1]) | pKd (SHANK3, Q9BYB0; [1]) | pKd (SDCBP_1, O00560; [1]) | pKd (DVL2, O14641) | further results
1 | QQSMSSADSTQA [SARS-Cov2-N, P0DTC9] | below the threshold | below the threshold | below the threshold | below the threshold | below the threshold | below the threshold | below the threshold | below the threshold | below the threshold | below the threshold | below the threshold | below the threshold | below the threshold | below the threshold | below the threshold | below the threshold | below the threshold | below the threshold | below the threshold | below the threshold | pKd (CNKSR3, Q6P9H4; [1]): below the threshold; pKd (AHNAK2, Q8IVF2; [1]): below the threshold; pKd (SHROOM4, Q9ULL8; [1]): below the threshold
2 | RRRRSQSRESQC [HBV-HBc, P03193] | 3.96 | below the threshold | below the threshold | below the threshold | below the threshold | below the threshold | below the threshold | below the threshold | below the threshold | below the threshold | below the threshold | below the threshold | below the threshold | below the threshold | below the threshold | below the threshold | below the threshold | below the threshold | below the threshold | below the threshold | pKd (CNKSR3, Q6P9H4; [1]): below the threshold; pKd (AHNAK2, Q8IVF2; [1]): below the threshold; pKd (SHROOM4, Q9ULL8; [1]): below the threshold
3 | RYEDTTLVEDTVL [WNV-NS5, Q9Q6P4] | below the threshold | below the threshold | below the threshold | below the threshold | below the threshold | below the threshold | below the threshold | below the threshold | below the threshold | below the threshold | below the threshold | below the threshold | 4.19 | below the threshold | below the threshold | 3.84 | below the threshold | 4.59 | below the threshold | below the threshold | pKd (AHNAK2, Q8IVF2; [1]): below the threshold; pKd (SHROOM4, Q9ULL8; [1]): below the threshold
4 | SSRTRRETQL [HPV16-E6_-2P, P03126] | – | – | – | – | – | – | – | – | – | – | – | – | – | – | – | – | – | – | – | – | pKd (SIPA1L3, O60292; [2]): below the threshold; pKd (CNKSR3, Q6P9H4; [2]): below the threshold; pKd (PDZRN4_2, Q6ZMN7; [2]): 4.26; pKd (MPP5, Q8N3R9; [2]): below the threshold; pKd (MAGI2_1, Q86UL8; [2]): below the threshold; pKd (NHERF3_2, Q5T2W1; [2]): below the threshold; pKd (RGS3, P49796-9; [2]): below the threshold; pKd (TJP3_1, O95049; [2]): below the threshold; pKd (MPP1, Q00013; [2]): below the threshold; pKd (GRIP1_1, Q9Y3R0; [2]): 4.61; pKd (MLLT4, P55196; [2]): below the threshold; pKd (NHERF2_1, Q15599; [2]): below the threshold; pKd (PREX2_2, Q70Z35; [2]): below the threshold; pKd (MPDZ_11, O75970; [2]): below the threshold; pKd (MAGI1_5, Q96QZ7; [2]): below the threshold; pKd (PTPN13_5, Q12923; [2]): below the threshold; pKd (SHANK3, Q9BYB0; [2]): below the threshold; pKd (SDCBP_1, O00560; [2]): below the threshold; pKd (AHNAK2, Q8IVF2; [2]): below the threshold; pKd (SHROOM4, Q9ULL8; [2]): below the threshold
